Data from the supplement of paper PMC7125110.
± gives the standard error. For some assays here: Variants at the floor of the assay were thinned out.

B1: glmS ribozyme (parent)
chain: AUAAAAGCGCCAGAACUACAGAAAUGUAGUUGACGAGGAGGAGGUUUAUCGAAUUUUCGGCGGAUGCCUCCAAA

How the values were obtained:
Conditions in all cases: with glucosamine-6-phosphate
glucosamine-6-phosphate [1] = variants of: B1; assay: kcat; higher = faster cleavage; RNA array
Outline: (§1)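 Barcoded ribozyme variants, transcribed in situ by E. coli RNA polymerase on sequenced MiSeq chips, were followed via a hybridised Cy3 probe at 37 °C. Glucosamine-6-phosphate ranged from 40 μM to 10 mM in HEPES/KCl/Mg(OAc)2 buffer. kobs came from decay fits to per-tile medians, and kcat and KM from weighted Michaelis–Menten fits.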

glucosamine-6-phosphate [2] = variants of: B1; assay: KM; higher = weaker cofactor use; RNA array
Outline: as §1

glucosamine-6-phosphate [3] = variants of: B1; assay: self-cleavage kobs at 40 uM GlcN6P; higher = faster cleavage; RNA array
Outline: as §1

glucosamine-6-phosphate [4] = variants of: B1; assay: self-cleavage kobs at 2500 uM GlcN6P; higher = faster cleavage; RNA array
Outline: as §1

glucosamine-6-phosphate [5] = variants of: B1; assay: self-cleavage kobs at 10000 uM GlcN6P; higher = faster cleavage; RNA array
Outline: as §1

glucosamine-6-phosphate [6] = variants of: B1; assay: self-cleavage kobs at 640 uM GlcN6P; higher = faster cleavage; RNA array
Outline: as §1

glucosamine-6-phosphate [7] = variants of: B1; assay: self-cleavage kobs at 160 uM GlcN6P; higher = faster cleavage; RNA array
Outline: as §1

Variant	kcat (glucosamine-6-phosphate [1])	KM (glucosamine-6-phosphate [2])	self-cleavage kobs at 40 uM GlcN6P (glucosamine-6-phosphate [3])	self-cleavage kobs at 2500 uM GlcN6P (glucosamine-6-phosphate [4])	self-cleavage kobs at 10000 uM GlcN6P (glucosamine-6-phosphate [5])	self-cleavage kobs at 640 uM GlcN6P (glucosamine-6-phosphate [6])	self-cleavage kobs at 160 uM GlcN6P (glucosamine-6-phosphate [7])
AUAAAGGCGCCAGACCUACAGAAAUGUAGUUGACGAGGAGGAGGUUUAUCGAAUUUUCGGCGGAUGCCUCCAAA [A6G A15C]	7.64e-05 ± 3.5e-06 s⁻¹	1700 ± 240 µM	< 1e-05 s⁻¹	4.69e-05 ± 9.3e-06 s⁻¹	6.45e-05 ± 1.1e-05 s⁻¹	–	–
AUAAACGCGCCAGAACUACAGAAAUGUAGUUGACGAGGAGGAGGUUUAUCGAAUUUUCGGCGGAUGCGUCCAAA [A6C C68G]	< 1e-05 s⁻¹	–	< 1e-05 s⁻¹	–	–	< 1e-05 s⁻¹	–
AUAAACGCGCCAGAACUACAGAAAUGUAGUUGACGAGGAGGAGGUUUAUCGAAUUUUCGGCGGAUGCUUCCAAA [A6C C68U]	4.51e-05 ± 1.8e-06 s⁻¹	534 ± 140 µM	–	3.96e-05 ± 9.1e-06 s⁻¹	4.19e-05 ± 6.8e-06 s⁻¹	–	–
AUAAACGCGCCAGAACUACAGAAAUGUAGUUGACGAGGAGGAGGUUUAUCGAAUUUUCGGCGGAUACCUCCAAA [A6C G66A]	8.29e-05 ± 2.9e-06 s⁻¹	3320 ± 320 µM	–	3.57e-05 ± 1.3e-05 s⁻¹	6.22e-05 ± 1.2e-05 s⁻¹	–	–
AUAAAGGCGCCAAAACUACAGAAAUGUAGUUGACGAGGAGGAGGUUUAUCGAAUUUUCGGCGGAUGCCUCCAAA [A6G G13A]	< 1e-05 s⁻¹	–	< 1e-05 s⁻¹	–	–	< 1e-05 s⁻¹	< 1e-05 s⁻¹
AUAAAGGCGCCAGAACUACAGAAAUGUAGUUGACGACGAGGAGGUUUAUCGAAUUUUCGGCGGAUGCCUCCAAA [A6G G37C]	< 1e-05 s⁻¹	–	–	–	–	–	< 1e-05 s⁻¹
AUAAACGCGCCAGAACUACAGAAAUGUAAUUGACGAGGAGGAGGUUUAUCGAAUUUGCGGCGGAUGCCGCCAAA [A6C G29A U57G U69G]	3.11e-05 ± 1.2e-05 s⁻¹	–	–	–	–	–	–
AUAAACGCGCCCGAACUACAGAAAUGUAGUUGACGAGGAGGAGGUUUAUCGAAUUUGCGGCGGAUGCCUCCAAA [A6C A12C U57G]	1.28e-05 ± 2.4e-06 s⁻¹	–	–	–	< 1e-05 s⁻¹	–	–
AUAAAGGCGCCGGAACUACAGAAAUGUAGUUGACGAGGAGGAGGUUUAUCGAAUUUUCGGCGGAUGCCUCCAAA [A6G A12G]	1.13e-05 ± 1.3e-06 s⁻¹	–	–	–	–	–	–
AUAAAGGCGCCAGAACUACAGAAAUGUAGUUGACGAGGAGGAGGUUUAUCGAAUUUUCGGCGGAUGCCUACAAA [A6G C70A]	< 1e-05 s⁻¹	–	< 1e-05 s⁻¹	–	< 1e-05 s⁻¹	–	–
AUAAACGCGCCAGAACUACAGAAAUGUAGUUGACGAGGAGGAGGUUUAUCGAAUUUUCGGAGGAUGCCUCCAAA [A6C C61A]	< 1e-05 s⁻¹	–	< 1e-05 s⁻¹	–	< 1e-05 s⁻¹	–	–
AUAAAUGCGCCAGGACUACAGAAAUGUAGUUGACGAGGAGGAGGUUUAUCGAAUUUUCGGCGGAUGCCUCCAAA [A6U A14G]	0.000657 ± 7.8e-05 s⁻¹	2280 ± 480 µM	–	0.000414 ± 8.3e-05 s⁻¹	0.000513 ± 8.4e-05 s⁻¹	0.000135 ± 2.3e-05 s⁻¹	4.93e-05 ± 2.3e-05 s⁻¹
AUAAACGCGCCAGAACUACAGAAAUGUAGUUGACGAGGAGGAGGAUUAUCGAAUUUUCGGCGGAUGCCUCCAAA [A6C U45A]	0.000229 ± 1.7e-05 s⁻¹	3720 ± 750 µM	< 1e-05 s⁻¹	8.34e-05 ± 2.8e-05 s⁻¹	0.000168 ± 2.1e-05 s⁻¹	3.95e-05 ± 1.9e-05 s⁻¹	–
AUAAACGCGCCAGAACUACAGAAAUGUAAUUGACGAGGAGGAGGUUUAUCGAAUUUUCGGCGGAUGCCUCCAAA [A6C G29A]	< 1e-05 s⁻¹	–	< 1e-05 s⁻¹	–	–	–	–
AUAAACGCGCCAGAACUACAGAAAUGUAGUUGACGAGGAGGAGGUUUAUCGAAUGUUCGGCGGAUGCCUCCAAA [A6C U55G]	0.00017 ± 7.1e-06 s⁻¹	8250 ± 640 µM	–	4.01e-05 ± 9.6e-06 s⁻¹	9.3e-05 ± 1.1e-05 s⁻¹	–	–
AUAAACGCGCCAGAACUACAGAAAUGUAGUUGACGAGGAGGAGGUUUAUCGAAUUUUCGGCGGAUGCCUUCAAA [A6C C70U]	0.000107 ± 2.6e-06 s⁻¹	1350 ± 110 µM	–	7.26e-05 ± 9.6e-06 s⁻¹	9.39e-05 ± 7.1e-06 s⁻¹	3.3e-05 ± 6.9e-06 s⁻¹	–
AUAAACGCGCCAGAACUACAGAAAUGUAGUUGACGAGGAGGAGGUUUAUCGAAUUUUCGGCGGAUGCCUACAAA [A6C C70A]	1.39e-05 ± 2.5e-06 s⁻¹	–	–	–	–	–	–
AUAAACGCGCCAGAACUACAGAAAUGUAGUUGACGAGGAGGAGGUUUAUCGAAUUUUCGGCGGAUGCCUCUAAA [A6C C71U]	9.59e-05 ± 6.3e-06 s⁻¹	1150 ± 280 µM	–	7.07e-05 ± 9.3e-06 s⁻¹	8.35e-05 ± 9.7e-06 s⁻¹	2.89e-05 ± 1.2e-05 s⁻¹	–
AUAAACGCGCCAGAACUACAGAAAUGUAGUUGACGAGGAGGAGGUUUAUCGAAUUUUCGGCGGAAGCCUCCAAA [A6C U65A]	1.38e-05 ± 2.5e-07 s⁻¹	3180 ± 190 µM	–	–	–	–	–
AUAAAGGCGCCAGAACUACAGAAAUGUAGUUGACGAGGAGGAGGUUUAUCGAAUGUUCGGCGGAUGCCUCCAAA [A6G U55G]	0.000588 ± 4.1e-05 s⁻¹	2390 ± 350 µM	–	0.000299 ± 5.2e-05 s⁻¹	0.000473 ± 7.8e-05 s⁻¹	0.000133 ± 3.4e-05 s⁻¹	–
AUAAACGUGCCAGAACUACAGAAAUGUAGUUGACCAGGAGGAGGUUUAUCGAAUUUUGGGCGGAUGCCUCCAAA [A6C C8U G35C C58G]	< 1e-05 s⁻¹	–	–	–	< 1e-05 s⁻¹	< 1e-05 s⁻¹	–
AUAAACGCGCCAGAACUACAGAAAUGUAGUUGACGAGGAGGAGGUUUAUCGAAUUUUCAGCGGAUGCCUCCAAA [A6C G59A]	< 1e-05 s⁻¹	–	< 1e-05 s⁻¹	–	< 1e-05 s⁻¹	–	–
